Series [1] in a line: Kinetic parameters of Se1_NKR and Se2_NKR for acetolactate, as set in the model. The class given is biochemical. To be noted: parameter set in the model. From the text: (§1) Where nNKR is the number of copies of NKR integrated into the yeast genome, kcatis the first order rate constant, AL is the cytosolic concentration of acetolactate, Km is the Michaelis constant for acetolactate, DHIV is the concentration of DHIV, and KiDHIV is the inhibition constant for DHIV. […] This also assumes that all copies of NKR are expressed equally regardless of promotor or where it is integrated in the genome.

A short description of series [2]: DHIV inhibition constant of Se1_NKR and Se2_NKR, as set in the model. The series is classed as biochemical. As to conditions: parameter set in the model; read-out: KiDHIV.
Description: as §1

A short description of series [3]: KARI enzyme KM assay with NADH, purified enzymes. To be noted: for Vmax: 0.1 mg/mL of enzyme. The class given is biochemical, Slackia exigua. Here is the method:
(§2) In this example, three different KARI Gen6 variant enzymes (v1, v48, and v65) and parent enzyme Se1_NKR_gen 6 were screened for their activity with NADH as cofactor. The enzymes were expressed E. coli, and resulting transformants were cultivated in shake flask fermentations as described below and samples were taken after 44h, centrifuged at 4000×g for 10 mins at 4° C. and the cell pellets were stored at −80° C. until analysis. The pellets were lysed by bead beating and the lysates were analyzed by KARI activity assay as described below using NADH and NADPH as cofactors.
(§3) KARI Enzyme Assay: The assay and no substrate control reactions were performed in triplicate for each sample. For the KM assay, the reaction samples comprised 100 mM potassium phosphate, pH 6.8 or 7, 10 mM MgCl2, 1 mM DTT, 200 μM NADH, 0-10 mM 2-acetolactate, and 0.1 mg/mL of enzyme. For the Ki assay, the reaction samples comprised 100 mM potassium phosphate, pH 6.8 or 7, 10 mM MgCl2, 1 mM DTT, 200 μM NADH, 1 mM 2-acetolactate, 0-40 mM R-DHIV, and 0.1 mg/mL of enzyme. For the no substrate controls, the 2-acetolactate was substituted with water. 10 μL of each lysate were transferred into a 96 well half area assay plate. The reaction was started with 90 μL of reaction buffer to each well using a multichannel pipette. The samples were mixed immediately. The samples were read at 340 nm every 10 seconds for 5 minutes.
(§4) The purified enzymes encoded by Se1_NKR_Gen6 (Se1), Se1_NKR_v1 (v1), Se1_NKR_v48 (v48), and Se1_NKR_v65 (v65) under two conditions: 33° C. at pH 6.8 and 30° C. at pH 7 were characterized.

A short description of series [4]: KARI enzyme Ki assay (product inhibition) with NADH, purified enzymes. The class given is biochemical, Slackia exigua. As to conditions: for IC50 / Ki: 1 mM 2-acetolactate, 0-40 mM R-DHIV; for catalytic efficiency using KM apparent = KM*(1+[product]/Ki), compared to Se1_NKR: 1 mM DHIV; for catalytic efficiency (KM apparent) versus increasing concentrations of DHIV (FIG. 14A-B): both conditions (33° C., pH 6.8 and 30° C., pH 7.0). As to the method:
as §2, §3, §4
In order to determine the impact of all three parameters (kcat, KM, and Ki) to more closely determine the impact of the new variants in vivo, the catalytic efficiency for each enzyme using the KM apparent, which is equal to KM*(1+[product]/Ki), was calculated. […] At this DHIV concentration level, in vivo, at 33° C., pH 6.8, m48 would be 157%, Se1_NKR_v1 would be 139%, and Se1_NKR_v65 would be 118% improved compared to Se1_NKR. For example, in vivo, cells expressing Se1_NKR-v48, it would be expected that 16 fewer copies of the enzyme could potentially achieve 36% less protein while achieving 0.35 g/g yeast efficiency.

In series [5] the test system is Isobutanol Production. Description: Simple shake flask fermentation, final relative isobutanol concentration. To be noted: enzyme on vector; for Isobutanol Concentration relative to Se1_NKR control (WT): final concentration. The class given is cell-based. From the text:
This improvement in isobutanol production is expected to increase with multiple copies of the Se1_NKR_v1 variant enzyme incorporated into the host cell genome.

Consider three molecules from patent US20260152729A1, “NOVEL NKR VARIANTS FOR INCREASED PRODUCTION OF ISOBUTANOL” (Gevo, Inc., priority 2020, published 2026).

Changes are numbered by the printed parent chain. In names and notes the source's numbering stands.

B1: Se1_NKR: NADH-dependent ketol-acid reductoisomerase from Slackia exigua (S. exigua KARI, SEQ ID NO: 2); parent enzyme of the variants (protein, listed as Slackia exigua)
chain: MSVKTKEKEMAVTILYEQDVDPKVIQGLKVGIIGYGSQGHAHALNLMDSGVDVRVGLREGSSSWKTAEEAGLKVTDMDTAAEEADVIMVLVPDEIQPKVYQEHIAAHLKAGNTLAFAHGFNIHYGYIVPPEDVNVIMCAPKGPGHIVRRQFTEGSGVPDLACVQQDATGNAWDIVLSYCWGVGGARSGIIKATFAEETEEDLFGEQAVLCGGLVELVKAGFETLTEAGYPPELAYFECYHEMKMIVDLMYESGIHFMNYSISNTAEYGEYYAGPKVINEQSREAMKEILKRIQDGSFAQEFVDDCNNGHKRLLEQREAINTHPIETTGAQIRSMFSWIKKED
In the case of B1, the Kcat in series [1] came out at 2.6 s⁻¹; in series [3] (30° C., pH 7), 442 s⁻¹; in series [3] (33° C., pH 6.8), 382 s⁻¹. Besides, the Km in series [1] is 430 µM; in series [3] (30° C., pH 7), 711 µM; in series [3] (33° C., pH 6.8) it was 419 µM. In addition, the Ki in series [2] turned out to be 1100 µM; in series [4] (30° C., pH 7) it was 752 µM; in series [4] (33° C., pH 6.8), 768 µM. In addition, the Vmax in series [3] (30° C., pH 7) came to 1.30 mM/s; in series [3] (33° C., pH 6.8), 1.12 mM/s. Moreover, the concentration for half-maximal inhibition (IC50) in series [4] (30° C., pH 7) was determined as 1810 µM; in series [4] (33° C., pH 6.8), 2600 µM. Also, in series [5], the “Isobutanol Concentration relative to Se1_NKR control (WT)” value is 100%.

B2: V1: Se1_NKR Gen6 variant with mutations M77I, V91I, K290A, Q330N as printed in Table 5; e.g. SEQ ID NO: 90 (protein, listed as Slackia exigua)
chain: MSVKTKEKEMAVTILYEQDVDPKVIQGLKVGIIGYGSQGHAHALNLMDSGVDVRVGLREGDSDWKTAEEAGLKVTDIDTAAEEADVIMVLIPDEVQPKVYQEHIAAHLKAGNTLAFAHGFNIHYGYIVPPEDVNVIMCAPKGPGHIVRRQFTEGSGVPDLACVQQDATGNAWDIVLSYCWGVGGARSGIIKATFAEETEEDLFGEQAVLCGGLVELVKAGFETLTEAGYPPELAYFECYHEMKMIVDLMYESGIHFMNYSISNTAEYGEYYAGPKVINEQSREAMKEILARIQDGSFAQEFVDDCNNGHKRLLEQREAINTHPIETTGARIRSMFSWIKKEDLEHHHHHH
modifications: SITE 1..350 Se1_NKR_v1 protein
As for B2, in series [3] (30° C., pH 7), the Kcat was 555 s⁻¹, the Km turned out to be 566 µM and the Vmax worked out at 1.63 mM/s. In series [3] (33° C., pH 6.8), the Kcat came out at 491 s⁻¹, the Km is 407 µM and the Vmax was 1.45 mM/s. Besides, the “KM for acetolactate, comparison of the variants” value in series [3] (generally, under the two conditions) is “best (lowest)”. In addition, in series [4] (33° C., pH 6.8), the “catalytic efficiency using KM apparent = KM*(1+[product]/Ki), compared to Se1_NKR” value is listed as 139%; the half-maximal inhibitory concentration (IC50) was found to be 2880 µM; the Ki was determined as 834 µM. In series [4] (30° C., pH 7), this molecule returned an IC50 of 2300 µM and a Ki of 832 µM. For the same molecule, the “catalytic efficiency (KM apparent) versus increasing concentrations of DHIV (FIG. 14A-B)” value in series [4] is “decreasing catalytic efficiencies”. In series [5], the “isobutanol concentration compared with the WT enzyme, in words” value is “significantly more isobutanol than the WT enzyme” and the “Isobutanol Concentration relative to Se1_NKR control (WT)” value is recorded as 105%.

B3: V65: Se1_NKR Gen6 variant with mutations G31A, V91I, Q330N as printed in Table 5; e.g. SEQ ID NO: 94 (protein, listed as Slackia exigua)
chain: B2 chain with G31A, I77M, A290K
modifications: SITE 1..350 Se1_NKR_v65 protein
For the molecule B3, in series [3] (30° C., pH 7), the Kcat turned out to be 602 s⁻¹, the Km amounted to 673 µM and the Vmax was found to be 1.77 mM/s. For the same molecule, in series [3] (33° C., pH 6.8), the Kcat was 538 s⁻¹, the Km is 510 µM and the Vmax was determined as 1.58 mM/s. In addition, in series [4] (33° C., pH 6.8), the “catalytic efficiency using KM apparent = KM*(1+[product]/Ki), compared to Se1_NKR” value amounted to 118%; the IC50 came to 2370 µM; the Ki turned out to be 801 µM. In series [4] (30° C., pH 7), the concentration for half-maximal inhibition (IC50) was 2040 µM and the Ki is 821 µM. The “catalytic efficiency (KM apparent) versus increasing concentrations of DHIV (FIG. 14A-B)” value in series [4] is listed as “decreasing catalytic efficiencies”. Further, the “Isobutanol Concentration relative to Se1_NKR control (WT)” value in series [5] stood at 103%.
